# Data from the supplement of paper PMC11865577.
# Columns and labels:
# Experiment in all cases: pull-down binding Z-score (relative to library population); higher = stronger binding
# [1] = system: TO-3-N3 (biotin conjugate); conditions: RNA library: Library-2
# In short: (§1)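 To score binding, a beads-only signal was subtracted, barcoded replicate probes were averaged with the highest and lowest dropped, and the value was converted to a Z-score using the library mean and standard deviation. The input was 1 μg of Cy5- or Cy3-end-labelled RNA library, heat-folded in phosphate/NaCl/KCl buffer and mixed for 60 min at 25 °C with streptavidin beads carrying 100 pmol of biotin-conjugated small molecule. Bound RNA was eluted in hot SDS and hybridised to a DNA barcode microarray at 55.5 °C for 20 h.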
# [2] = system: TO-3-N3-2 (biotin conjugate); conditions: RNA library: Library-2
# In short: as §1
# [3] = system: TO-N3-2 (biotin conjugate); conditions: RNA library: Library-2
# In short: as §1
# TO-N3 (biotin conjugate) = conditions: RNA library: Library-2
# In short: as §1
# [4] = system: G-clamp-N3 (biotin conjugate); conditions: RNA library: Library-1 (pre-miRNA loops + repeats)
# In short: as §1
Sequence,pull-down binding Z-score [1],pull-down binding Z-score [2],pull-down binding Z-score [3],pull-down binding Z-score (TO-N3 (biotin conjugate)),pull-down binding Z-score [4]
UGUGUACACACA [SHAPE_invivo_SARS-CoV-2_Motif_249],0.252,-0.496,-0.584,0.0581,
UGUGUCAAUAUUUAAACACA,0.372,-0.00504,-0.99,0.135,
UGUGUGAUAUCAGACA,-0.5,-0.703,-0.597,-0.639,
UGUUACUUUAUAUUGACAUUAAUGGCAAUCUUCAUCCAGAUUCUGCCACUCUUGUUAGUGACA,-0.354,-0.104,-0.868,-0.585,
UGUUCACGUGGAGAGGAGUUAAACA [hsa-mir-499b],0.0485,0.375,,0.423,0.339
UGUUGCUUAUGAAAGUUUACGCCCUGACACACGUUAUGUGCUCAUGGAUGGCUCUAUUAUUCAAUUUCCUAACACCUACCUUGAAGGUUCUGUUAGAGUGGUAACA [SHAPE_invitro_SARS-CoV-2_Multi_27_ComplexLevel_1],-0.56,0.0467,0.0671,-0.452,
UGUUGGCAUCAUUCUAUUGGAUUUGAUUACGUCUAUAAUCCGUUUAUGAUUGAUGUUCAACA,-0.515,-0.183,-0.625,-0.712,
UGUUGUAAAUAAGGGACACUUUGAUGGACAACA [DMSMaPseq_invitro_SARS-CoV-2_Motif_348],-0.73,-0.178,0.325,-0.488,
UGUUGUAACAACA,-0.671,-0.596,-1.35,-0.992,
UGUUUUCUACAAAGAAAACA [SHAPE_invivo_SARS-CoV-2_Motif_122],-0.462,-0.34,-1.85,-0.865,
UUAAAAUAUGACUUCACGGAAGAGAGGUUAAAACUCUUUGACCGUUAUUUUAA [DMSMaPseq_invitro_SARS-CoV-2_Motif_258],0.0656,0.159,-0.898,-0.184,
UUAAACACGCUUGUUAAACAACUUAGCUCCAAUUUUGGUGCAAUUUCAAGUGUUUUAA [SHAPE_invivo_SARS-CoV-2_Motif_457],0.47,-0.0371,-0.627,0.301,
UUAACGUGAGUCUUGUAAAACCUUCUUUUUACGUUUACUCUCGUGUUAA [DMSMaPseq_invitro_SARS-CoV-2_Motif_474],-0.223,-0.0657,-1.02,-0.275,
UUAAGGUGUUUACAACAGUAGACAACAUUAA [DMSMaPseq_invitro_SARS-CoV-2_Motif_93],-1.01,-0.382,-1.08,-1.08,
UUAAGUGACACACUUAA,-0.711,-0.663,-1.49,-1.18,
UUAAUGCCUGUCUGUGUGGAAACUAAAGCCAUAGUUUCAACUAUACAGCGUAAAUAUAAGGGUAUUAA [DMSMaPseq_invitro_SARS-CoV-2_Motif_83],-0.287,0.502,-0.463,-0.439,
UUAAUGGAGUCACAUUAA [DMSMaPseq_invitro_SARS-CoV-2_Motif_357],0.485,-0.347,-1,0.273,
UUAAUUGAAUUGUGCGUGGAUGAGGCUGGUUCUAAAUCACCCAUUCAGUACAUCGAUAUCGGUAAUUAUACAGUUUCCUGUUUACCUUUUACAAUUAA [DMSMaPseq_invitro_SARS-CoV-2_Multi_84_ComplexLevel_1],-0.244,0.0361,-0.403,-0.239,
UUACACCACUGGGCAUUGAUUUAGAUGAGUGGAGUAUGGCUACAUACUACUUAUUUGAUGAGUCUGGUGAGUUUAA,-0.972,-0.516,-1.04,-1.09,
UUACAGAAGAGGUUGGCCACACAGAUCUAAUGGCUGCUUAUGUAG,-0.523,-0.244,-0.138,-0.376,
UUACAGAUCUUUACCAGGAGUUUUCUGUGGUGUAGAUGCUGUAA [SHAPE_invivo_SARS-CoV-2_Motif_187],-0.96,-0.414,-1,-1.21,
UUCAGUUUCCUUACUGGUAA [hsa-mir-302e],-0.394,-0.353,-0.299,,-0.769
UUUAUGUGAACUAAAAUAUAAA [hsa-mir-513c],-0.547,-0.21,-1,,-1.49
UUUGAAGUGUUCUAAAUGGUUCAAA [hsa-mir-424],-0.532,,-1.05,-0.738,1.09
